Data as given in patent publication US20210388087A1 (Chugai, published 2021).
Residue numbers refer to the chain shown, from its start. In names and notes the source's numbering stands.

B1: CE115HA000 N53D one-arm antibody (antibody, human IgG1, kappa, L234A L235A, N297A, name in Kabat numbering)
heavy: QVQLVESGGGVVQPGRSLRLSCAASGFTFSNAWMHWVRQAPGKGLEWVAQIKAKSDNYATYYAESVKGRFTISRDDSKNSLYLQMNSLKTEDTAVYYCRYVHYGAYYGVDAWGQGTTVTVSSASTKGPSVFPLAPSSKSTSGGTAALGCLVKDYFPEPVTVSWNSGALTSGVHTFPAVLQSSGLYSLSSVVTVPSSSLGTQTYICNVNHKPSNTKVDKKVEPKSCDKTHTCPPCPAPEAAGGPSVFLFPPKPKDTLMISRTPEVTCVVVDVSHEDPEVKFNWYVDGVEVHNAKTKPREEQYASTYRVVSVLTVLHQDWLNGKEYKCKVSNKALPAPIEKTISKAKGQPREPQVYTLPPSRCELTKNQVSLSCAVKGFYPSDIAVEWESNGQPENNYKTTPPVLDSDGSFFLVSKLTVDKSRWQQGNVFSCSVMHEALHNHYTQKSLSLSPDYKDDDDK
chain: EPKSSDKTHTCPPCPAPELLGGPSVFLFPPKPKDTLMISRTPEVTCVVVDVSHEDPEVKFNWYVDGVEVHNAKTKPREEQYNSTYRVVSVLTVLHQDWLNGKEYKCKVSNKALPAPIEKTISKAKGQPREPQVCTLPPSRDELTKNQVSLWCLVKGFYPSDIAVEWESNGQPENNYKTTPPVLDSDGSFFLYSKLTVDKSRWQQGNVFSCSVMHEALHNRYTQKSLSLSP
light: DIVMTQSPLSLPVTPGEPASISCRSSQSLVHSNRNTYLHWYQQKPGQAPRLLIYKVSNRFSGVPDRFSGSGSGTDFTLKISRVEAEDVGVYYCGQGTQVPYTFGQGTKLEIKRTVAAPSVFIFPPSDEQLKSGTASVVCLLNNFYPREAKVQWKVDNALQSGNSQESVTEQDSKDSTYSLSSTLTLSKADYEKHKVYACEVTHQGLSSPVTKSFNRGEC
B2: CE115HA000 N53Y one-arm antibody (antibody, human IgG1, kappa, L234A L235A, N297A, name in Kabat numbering)
heavy: B1 heavy with D56Y
chain: B1 chain
light: B1 light
B3: CE115HA000 N54L one-arm antibody (antibody, human IgG1, kappa, L234A L235A, N297A, name in Kabat numbering)
heavy: B1 heavy with D56N, N57L
chain: B1 chain
light: B1 light
B4: CE115HA000 N76S one-arm antibody (antibody, human IgG1, kappa, L234A L235A, N297A, name in Kabat numbering)
heavy: B1 heavy with D56N, N79S
chain: B1 chain
light: B1 light
B5: CE115HA000 Q50K one-arm antibody (antibody, human IgG1, kappa, L234A L235A, N297A, name in Kabat numbering)
heavy: B1 heavy with Q50K, D56N
chain: B1 chain
light: B1 light
B6: CE115HA000 N54Y one-arm antibody (antibody, human IgG1, kappa, L234A L235A, N297A, name in Kabat numbering)
heavy: B1 heavy with D56N, N57Y
chain: B1 chain
light: B1 light
B7: CE115HA000 Q105E one-arm antibody (antibody, human IgG1, kappa, L234A L235A, N297A, name in Kabat numbering)
heavy: B1 heavy with D56N, Q114E
chain: B1 chain
light: B1 light
B8: CE115HA000 Q50A one-arm antibody (antibody, human IgG1, kappa, L234A L235A, N297A, name in Kabat numbering)
heavy: B1 heavy with Q50A, D56N
chain: B1 chain
light: B1 light
B9: CE115HA000 N53I one-arm antibody (antibody, human IgG1, kappa, L234A L235A, N297A, name in Kabat numbering)
heavy: B1 heavy with D56I
chain: B1 chain
light: B1 light
B10: CE115HA000 R19T one-arm antibody (antibody, human IgG1, kappa, L234A L235A, N297A, name in Kabat numbering)
heavy: B1 heavy with R19T, D56N
chain: B1 chain
light: B1 light
B11: CE115HA000 N54F one-arm antibody (antibody, human IgG1, kappa, L234A L235A, N297A, name in Kabat numbering)
heavy: B1 heavy with D56N, N57F
chain: B1 chain
light: B1 light
B12: CE115HA000 Q50L one-arm antibody (antibody, human IgG1, kappa, L234A L235A, N297A, name in Kabat numbering)
heavy: B1 heavy with Q50L, D56N
chain: B1 chain
light: B1 light
B13: CE115HA000 Q50I one-arm antibody (antibody, human IgG1, kappa, L234A L235A, N297A, name in Kabat numbering)
heavy: B1 heavy with Q50I, D56N
chain: B1 chain
light: B1 light
B14: CE115HA000 N54A one-arm antibody (antibody, human IgG1, kappa, L234A L235A, N297A, name in Kabat numbering)
heavy: B1 heavy with D56N, N57A
chain: B1 chain
light: B1 light
B15: CE115HA000 N53G one-arm antibody (antibody, human IgG1, kappa, L234A L235A, N297A, name in Kabat numbering)
heavy: B1 heavy with D56G
chain: B1 chain
light: B1 light
B16: CE115HA000 N82aD one-arm antibody (antibody, human IgG1, kappa, L234A L235A, N297A, name in Kabat numbering)
heavy: B1 heavy with D56N, N86D
chain: B1 chain
light: B1 light
B17: CE115HA000 N54D one-arm antibody (antibody, human IgG1, kappa, L234A L235A, N297A, name in Kabat numbering)
heavy: B1 heavy with D56N, N57D
chain: B1 chain
light: B1 light
B18: CE115HA000 N53H one-arm antibody (antibody, human IgG1, kappa, L234A L235A, N297A, name in Kabat numbering)
heavy: B1 heavy with D56H
chain: B1 chain
light: B1 light
B19: CE115HA000 R16E one-arm antibody (antibody, human IgG1, kappa, L234A L235A, N297A, name in Kabat numbering)
heavy: B1 heavy with R16E, D56N
chain: B1 chain
light: B1 light
B20: CE115HA000 N54K one-arm antibody (antibody, human IgG1, kappa, L234A L235A, N297A, name in Kabat numbering)
heavy: B1 heavy with D56N, N57K
chain: B1 chain
light: B1 light
B21: CE115HA000 Q50S one-arm antibody (antibody, human IgG1, kappa, L234A L235A, N297A, name in Kabat numbering)
heavy: B1 heavy with Q50S, D56N
chain: B1 chain
light: B1 light
B22: CE115HA000 Q50D one-arm antibody (antibody, human IgG1, kappa, L234A L235A, N297A, name in Kabat numbering)
heavy: B1 heavy with Q50D, D56N
chain: B1 chain
light: B1 light
B23: CE115HA000 N53S one-arm antibody (antibody, human IgG1, kappa, L234A L235A, N297A, name in Kabat numbering)
heavy: B1 heavy with D56S
chain: B1 chain
light: B1 light
B24: CE115HA000 S30D one-arm antibody (antibody, human IgG1, kappa, L234A L235A, N297A, name in Kabat numbering)
heavy: B1 heavy with S30D, D56N
chain: B1 chain
light: B1 light
B25: CE115HA000 R16Q one-arm antibody (antibody, human IgG1, kappa, L234A L235A, N297A, name in Kabat numbering)
heavy: B1 heavy with R16Q, D56N
chain: B1 chain
light: B1 light
B26: CE115HA000 N54Q one-arm antibody (antibody, human IgG1, kappa, L234A L235A, N297A, name in Kabat numbering)
heavy: B1 heavy with D56N, N57Q
chain: B1 chain
light: B1 light
B27: CE115HA000 N54S one-arm antibody (antibody, human IgG1, kappa, L234A L235A, N297A, name in Kabat numbering)
heavy: B1 heavy with D56N, N57S
chain: B1 chain
light: B1 light
B28: CE115HA000 N54G one-arm antibody (antibody, human IgG1, kappa, L234A L235A, N297A, name in Kabat numbering)
heavy: B1 heavy with D56N, N57G
chain: B1 chain
light: B1 light
B29: CE115HA000 N53W one-arm antibody (antibody, human IgG1, kappa, L234A L235A, N297A, name in Kabat numbering)
heavy: B1 heavy with D56W
chain: B1 chain
light: B1 light
B30: CE115HA000 N53K one-arm antibody (antibody, human IgG1, kappa, L234A L235A, N297A, name in Kabat numbering)
heavy: B1 heavy with D56K
chain: B1 chain
light: B1 light
B31: CE115HA000 Q50E one-arm antibody (antibody, human IgG1, kappa, L234A L235A, N297A, name in Kabat numbering)
heavy: B1 heavy with Q50E, D56N
chain: B1 chain
light: B1 light
B32: CE115HA000 N53Q one-arm antibody (antibody, human IgG1, kappa, L234A L235A, N297A, name in Kabat numbering)
heavy: B1 heavy with D56Q
chain: B1 chain
light: B1 light
B33: CE115HA000 Q50Y one-arm antibody (antibody, human IgG1, kappa, L234A L235A, N297A, name in Kabat numbering)
heavy: B1 heavy with Q50Y, D56N
chain: B1 chain
light: B1 light

target: T1, CD3 epsilon homodimer protein (UniProt P07766 23-126); assay: SPR (Biacore T200), CD3 epsilon homodimer on CM4 chip, one-arm antibody as analyte, 25 C;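 further: homodimer attached to the sensor surface via amine coupling, HBS-EP+ used as running buffer during binding runs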
T1 construct: immobilized on Sensor chip CM4 by amine coupling; also called CD3 (CD3 epsilon)
T1 sequence (P07766 23-126): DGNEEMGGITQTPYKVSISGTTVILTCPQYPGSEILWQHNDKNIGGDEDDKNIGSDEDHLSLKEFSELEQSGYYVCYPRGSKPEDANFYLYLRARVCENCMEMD

Point of comparison: B5, “ratio of amounts bound (altered form / CE115HA000)” value 0.33. Against it:
- B1 — higher, 0.39
- B2 — higher, 0.63
- B3 — higher, 0.94
- B4 — higher, 0.92
- B6 — higher, 1.09
- B7 — higher, 0.94
- B8 — lower, 0.24
- B9 — higher, 0.68
- B10 — higher, 0.8
- B11 — higher, 1.12
- B12 — lower, 0.23
- B13 — higher, 0.4
- B14 — higher, 0.85
- B15 — higher, 0.5
- B16 — higher, 0.73
- B17 — higher, 0.62
- B18 — higher, 0.76
- B19 — higher, 0.88
- B20 — higher, 1.2
- B21 — lower, 0.24
- B22 — lower, 0.27
- B23 — higher, 0.83
- B24 — higher, 0.86
- B25 — higher, 0.9
- B26 — higher, 0.84
- B27 — higher, 0.84
- B28 — higher, 0.98
- B29 — higher, 0.88
- B30 — higher, 0.78
- B31 — lower, 0.26
- B32 — higher, 1.1
- B33 — lower, 0.25
